B1: Ras-related protein Rab-21 (Mus musculus), P35282 (parent)
chain: MAAAGGGAAAAAGRAYSFKVVLLGEGCVGKTSLVLRYCENKFNDKHITTLQASFLTKKLNIGGKRVNLAIWDTAGQERFHALGPIYYRDSNGAILVYDVTDEDSFQKVKNWVKELRKMLGNEICLCIVGNKIDLEKERHVSIQEAESYAESVGAKHYHTSAKQNKGIEELFLDLCKRMIETAQVDERAKGNGSSQAGAARRGVQIIDDEPQAQSSGGCCSSG

Assays:
itb1_human ITGB1, P05556 [1] = variants of: B1; conditions: with itb1_human ITGB1, P05556
ita2_human ITGA2, P17301 = variants of: B1; conditions: with ita2_human ITGA2, P17301
itb1_human ITGB1, P05556 [2] = variants of: B1; conditions: with itb1_human ITGB1, P05556; remark: listed apart in the source

Sequence of itb1_human ITGB1, P05556 (P05556 whole entry): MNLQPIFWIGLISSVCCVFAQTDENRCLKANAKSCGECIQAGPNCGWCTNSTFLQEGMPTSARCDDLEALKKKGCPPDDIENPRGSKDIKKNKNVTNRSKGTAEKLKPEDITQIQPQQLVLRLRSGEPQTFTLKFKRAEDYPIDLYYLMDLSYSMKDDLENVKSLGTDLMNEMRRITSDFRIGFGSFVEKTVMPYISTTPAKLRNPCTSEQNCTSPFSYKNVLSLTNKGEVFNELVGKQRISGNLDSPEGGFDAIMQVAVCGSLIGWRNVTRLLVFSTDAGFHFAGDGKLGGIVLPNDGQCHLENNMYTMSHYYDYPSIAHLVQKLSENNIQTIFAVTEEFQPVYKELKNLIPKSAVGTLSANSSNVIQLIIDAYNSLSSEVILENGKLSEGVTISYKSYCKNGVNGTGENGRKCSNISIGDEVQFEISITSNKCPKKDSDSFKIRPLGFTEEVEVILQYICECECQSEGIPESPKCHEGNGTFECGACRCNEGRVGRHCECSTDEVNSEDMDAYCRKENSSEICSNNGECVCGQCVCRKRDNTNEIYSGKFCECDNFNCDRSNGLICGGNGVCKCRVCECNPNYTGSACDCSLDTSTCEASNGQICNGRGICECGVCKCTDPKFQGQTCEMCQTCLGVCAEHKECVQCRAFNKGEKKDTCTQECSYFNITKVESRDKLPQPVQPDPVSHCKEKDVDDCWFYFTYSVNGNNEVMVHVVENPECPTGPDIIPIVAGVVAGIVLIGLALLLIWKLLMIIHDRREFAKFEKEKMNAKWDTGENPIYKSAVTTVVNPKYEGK
Sequence of ita2_human ITGA2, P17301 (P17301 whole entry): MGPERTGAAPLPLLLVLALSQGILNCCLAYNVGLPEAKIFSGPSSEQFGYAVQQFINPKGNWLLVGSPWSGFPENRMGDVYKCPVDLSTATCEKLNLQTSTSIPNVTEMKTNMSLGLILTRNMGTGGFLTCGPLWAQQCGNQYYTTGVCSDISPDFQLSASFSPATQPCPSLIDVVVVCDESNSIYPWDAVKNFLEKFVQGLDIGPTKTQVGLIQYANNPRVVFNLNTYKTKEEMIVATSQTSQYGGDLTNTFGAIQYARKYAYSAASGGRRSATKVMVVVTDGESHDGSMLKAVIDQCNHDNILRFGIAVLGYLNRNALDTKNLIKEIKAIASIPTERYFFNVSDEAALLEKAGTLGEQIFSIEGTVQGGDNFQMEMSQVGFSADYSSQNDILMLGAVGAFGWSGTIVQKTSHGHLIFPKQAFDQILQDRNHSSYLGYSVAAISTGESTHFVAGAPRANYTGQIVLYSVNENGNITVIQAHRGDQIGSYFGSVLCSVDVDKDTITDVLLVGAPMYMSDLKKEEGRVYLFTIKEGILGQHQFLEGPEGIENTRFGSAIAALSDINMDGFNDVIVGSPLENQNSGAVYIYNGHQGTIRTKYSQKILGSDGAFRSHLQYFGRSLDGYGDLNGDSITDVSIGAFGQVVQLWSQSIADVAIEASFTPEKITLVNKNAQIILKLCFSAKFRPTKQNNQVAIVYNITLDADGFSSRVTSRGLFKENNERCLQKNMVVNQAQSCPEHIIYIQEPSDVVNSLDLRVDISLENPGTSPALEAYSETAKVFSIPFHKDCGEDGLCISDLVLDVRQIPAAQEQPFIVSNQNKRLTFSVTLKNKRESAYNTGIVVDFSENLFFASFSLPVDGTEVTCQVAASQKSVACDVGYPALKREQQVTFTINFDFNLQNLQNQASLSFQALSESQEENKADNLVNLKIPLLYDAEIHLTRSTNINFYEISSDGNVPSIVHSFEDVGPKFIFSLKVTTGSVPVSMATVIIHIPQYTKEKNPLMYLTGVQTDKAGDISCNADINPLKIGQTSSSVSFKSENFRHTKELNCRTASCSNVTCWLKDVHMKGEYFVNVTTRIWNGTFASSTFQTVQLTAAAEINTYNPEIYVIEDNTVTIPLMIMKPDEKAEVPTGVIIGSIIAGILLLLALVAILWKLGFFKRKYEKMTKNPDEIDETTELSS

## Q76L
itb1_human ITGB1, P05556 [1]
  effect of a mutation on the interaction: increasing interaction
ita2_human ITGA2, P17301
  effect of a mutation on the interaction: increasing interaction

## T31N
itb1_human ITGB1, P05556 [2]
  effect of a mutation on the interaction: decreasing interaction
ita2_human ITGA2, P17301
  effect of a mutation on the interaction: decreasing interaction
